This note sets out measurements from the supplement of paper PMC10065799, “High-throughput profiling of sequence recognition by tyrosine kinases and SH2 domains using bacterial peptide display” (eLife, 2023).

One data set has as its target c-Src SH2. As to the kind of experiment: SH2 binding enrichment of the phosphorylated peptide, bacterial display (enrichment ratio); higher = better substrate or ligand; peptides without Tyr show the background.
A further data set addresses SHP2-C SH2. The description is as above.
Another data set has as its target Grb2 SH2 (UniProt P62993). The description is as above.
The target of another data set is EPHB1 (UniProt P54762). Kind of data set: phosphorylation enrichment, bacterial display (enrichment ratio); higher = better substrate or ligand; peptides without Tyr show the background.
Another data set addresses FGFR1 (UniProt P11362). Described as above.
The target of the next data set is FGFR3 (UniProt P22607). The data set is described as above.
The test system of another data set is c-Src. The description is as above.
In a further data set the test system is c-Abl (mouse). The data set is described as above.
The target of a further data set is EPHB2 (UniProt P29323). The description is as above.
The target in another data set is Fyn (UniProt P06241). Described as above.
Another data set concerns Fer (mouse). The description is as above.
For the next data set, the target named is Jak2 (UniProt O60674). Described as above.
Another data set concerns the target MERTK (UniProt Q12866). The description is as above.
In another data set the test system is AncSZ. The data set is described as above.
In another data set the target is Hck (UniProt P08631). Described as above.
The next data set has as its target Fes (UniProt P07332). Described as above.
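Throughout, for SH2 binding enrichment of the phosphorylated peptide, bacterial display: peptide library displayed on the E. coli surface as eCPX fusions, selected cells deep-sequenced, score is each peptide's frequency after selection divided by its frequency in the input.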
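Throughout, for phosphorylation enrichment, bacterial display: 11-residue human phosphosite peptides and single-mutation variants displayed on the E. coli surface, counted by deep sequencing, each peptide's frequency after selection divided by its frequency in the unselected input library; frequency after pTyr selection over input frequency; kinase dosed for 20-30% of maximal phosphorylation in three min.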

Chain of Fes (P07332 whole entry, looked up, the tested form may be a part): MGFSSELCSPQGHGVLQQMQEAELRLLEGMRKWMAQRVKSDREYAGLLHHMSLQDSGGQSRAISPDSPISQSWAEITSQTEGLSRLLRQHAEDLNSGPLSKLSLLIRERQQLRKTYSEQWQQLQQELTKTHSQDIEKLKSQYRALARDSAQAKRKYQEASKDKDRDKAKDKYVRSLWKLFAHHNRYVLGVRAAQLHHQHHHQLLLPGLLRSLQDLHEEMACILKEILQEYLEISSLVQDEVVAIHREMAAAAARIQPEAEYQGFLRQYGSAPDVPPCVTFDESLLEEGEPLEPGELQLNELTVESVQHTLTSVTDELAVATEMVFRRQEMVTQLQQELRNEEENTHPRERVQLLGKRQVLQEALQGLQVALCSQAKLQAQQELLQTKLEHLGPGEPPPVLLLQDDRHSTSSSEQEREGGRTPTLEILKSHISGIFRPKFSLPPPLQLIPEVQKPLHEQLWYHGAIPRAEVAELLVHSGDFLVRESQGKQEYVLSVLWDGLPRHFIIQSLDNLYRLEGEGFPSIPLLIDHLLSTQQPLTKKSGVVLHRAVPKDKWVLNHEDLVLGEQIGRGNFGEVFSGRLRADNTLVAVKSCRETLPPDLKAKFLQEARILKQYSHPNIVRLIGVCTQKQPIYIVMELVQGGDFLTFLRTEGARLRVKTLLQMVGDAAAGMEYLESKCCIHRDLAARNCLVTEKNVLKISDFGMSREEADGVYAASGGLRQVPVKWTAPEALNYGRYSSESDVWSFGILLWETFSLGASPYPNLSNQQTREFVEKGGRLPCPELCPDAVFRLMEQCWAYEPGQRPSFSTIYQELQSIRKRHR
Chain of MERTK (Q12866 whole entry, looked up): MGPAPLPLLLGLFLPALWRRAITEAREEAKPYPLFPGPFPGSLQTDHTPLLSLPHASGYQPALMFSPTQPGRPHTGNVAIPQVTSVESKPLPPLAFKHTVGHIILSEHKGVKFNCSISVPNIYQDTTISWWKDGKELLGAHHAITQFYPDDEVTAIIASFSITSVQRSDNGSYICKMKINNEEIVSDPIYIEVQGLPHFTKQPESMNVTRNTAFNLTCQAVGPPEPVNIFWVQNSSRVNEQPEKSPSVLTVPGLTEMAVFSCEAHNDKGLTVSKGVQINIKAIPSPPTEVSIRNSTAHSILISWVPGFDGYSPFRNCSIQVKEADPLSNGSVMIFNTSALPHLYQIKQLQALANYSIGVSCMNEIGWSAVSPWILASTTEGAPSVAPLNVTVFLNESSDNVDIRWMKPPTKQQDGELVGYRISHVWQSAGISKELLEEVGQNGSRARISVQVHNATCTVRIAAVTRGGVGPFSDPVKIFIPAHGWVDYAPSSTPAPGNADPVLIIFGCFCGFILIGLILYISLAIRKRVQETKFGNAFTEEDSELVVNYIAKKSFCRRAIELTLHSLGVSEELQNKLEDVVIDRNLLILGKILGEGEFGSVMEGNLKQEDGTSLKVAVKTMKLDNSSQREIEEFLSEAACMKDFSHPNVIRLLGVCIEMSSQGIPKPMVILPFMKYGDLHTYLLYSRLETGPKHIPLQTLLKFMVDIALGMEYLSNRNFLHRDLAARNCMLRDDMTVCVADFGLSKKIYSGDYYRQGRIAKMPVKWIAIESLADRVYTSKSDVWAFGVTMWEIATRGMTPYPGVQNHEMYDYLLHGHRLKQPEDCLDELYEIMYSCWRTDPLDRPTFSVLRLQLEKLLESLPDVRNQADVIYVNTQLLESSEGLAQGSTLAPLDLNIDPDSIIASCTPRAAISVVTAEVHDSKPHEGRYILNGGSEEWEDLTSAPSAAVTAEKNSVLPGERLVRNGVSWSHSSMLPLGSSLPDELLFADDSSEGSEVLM
Chain of Jak2 (O60674 whole entry, looked up): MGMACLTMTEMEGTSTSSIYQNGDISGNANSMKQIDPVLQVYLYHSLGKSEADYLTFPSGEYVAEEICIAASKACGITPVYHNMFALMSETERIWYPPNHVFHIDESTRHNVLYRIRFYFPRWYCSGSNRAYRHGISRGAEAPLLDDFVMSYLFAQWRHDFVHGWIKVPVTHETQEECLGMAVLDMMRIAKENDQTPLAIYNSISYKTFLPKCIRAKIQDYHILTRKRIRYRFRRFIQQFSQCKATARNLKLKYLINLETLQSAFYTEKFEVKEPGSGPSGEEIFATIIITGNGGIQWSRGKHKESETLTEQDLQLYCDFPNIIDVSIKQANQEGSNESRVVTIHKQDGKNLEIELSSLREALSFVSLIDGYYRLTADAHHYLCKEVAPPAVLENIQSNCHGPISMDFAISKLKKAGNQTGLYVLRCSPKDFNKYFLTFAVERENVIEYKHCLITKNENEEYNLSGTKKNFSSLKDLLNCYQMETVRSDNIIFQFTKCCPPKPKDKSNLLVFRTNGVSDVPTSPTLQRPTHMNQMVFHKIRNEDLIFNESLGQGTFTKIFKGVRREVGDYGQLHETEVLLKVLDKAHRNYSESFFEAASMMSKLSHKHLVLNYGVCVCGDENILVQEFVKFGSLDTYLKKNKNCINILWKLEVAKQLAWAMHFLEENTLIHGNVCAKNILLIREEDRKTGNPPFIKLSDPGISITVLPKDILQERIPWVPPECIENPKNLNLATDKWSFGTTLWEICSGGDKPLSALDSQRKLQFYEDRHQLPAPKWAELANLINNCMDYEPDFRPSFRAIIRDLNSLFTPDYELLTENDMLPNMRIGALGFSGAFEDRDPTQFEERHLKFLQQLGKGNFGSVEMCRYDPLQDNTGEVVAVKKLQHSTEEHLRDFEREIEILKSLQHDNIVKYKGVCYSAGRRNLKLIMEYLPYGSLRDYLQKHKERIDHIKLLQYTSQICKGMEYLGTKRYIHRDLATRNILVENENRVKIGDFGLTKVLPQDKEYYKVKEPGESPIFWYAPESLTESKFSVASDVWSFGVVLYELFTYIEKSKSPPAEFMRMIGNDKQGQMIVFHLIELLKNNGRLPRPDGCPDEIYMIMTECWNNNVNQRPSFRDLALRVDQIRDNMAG
Chain of Fyn (P06241 whole entry, looked up): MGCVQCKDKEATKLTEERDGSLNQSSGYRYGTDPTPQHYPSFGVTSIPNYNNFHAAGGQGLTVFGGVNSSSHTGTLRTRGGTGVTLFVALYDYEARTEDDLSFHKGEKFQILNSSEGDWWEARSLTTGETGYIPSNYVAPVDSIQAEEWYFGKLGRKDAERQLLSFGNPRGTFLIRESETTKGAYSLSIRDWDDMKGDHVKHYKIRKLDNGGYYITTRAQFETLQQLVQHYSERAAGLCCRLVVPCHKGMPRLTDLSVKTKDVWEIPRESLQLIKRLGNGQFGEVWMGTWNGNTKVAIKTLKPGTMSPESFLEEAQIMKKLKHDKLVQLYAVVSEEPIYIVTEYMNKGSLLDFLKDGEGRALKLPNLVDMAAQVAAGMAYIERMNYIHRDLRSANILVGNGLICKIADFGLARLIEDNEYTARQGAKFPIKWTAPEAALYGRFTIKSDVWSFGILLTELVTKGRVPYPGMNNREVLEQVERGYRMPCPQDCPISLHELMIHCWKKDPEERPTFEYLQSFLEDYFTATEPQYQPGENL
Chain of EPHB2 (P29323 whole entry, looked up): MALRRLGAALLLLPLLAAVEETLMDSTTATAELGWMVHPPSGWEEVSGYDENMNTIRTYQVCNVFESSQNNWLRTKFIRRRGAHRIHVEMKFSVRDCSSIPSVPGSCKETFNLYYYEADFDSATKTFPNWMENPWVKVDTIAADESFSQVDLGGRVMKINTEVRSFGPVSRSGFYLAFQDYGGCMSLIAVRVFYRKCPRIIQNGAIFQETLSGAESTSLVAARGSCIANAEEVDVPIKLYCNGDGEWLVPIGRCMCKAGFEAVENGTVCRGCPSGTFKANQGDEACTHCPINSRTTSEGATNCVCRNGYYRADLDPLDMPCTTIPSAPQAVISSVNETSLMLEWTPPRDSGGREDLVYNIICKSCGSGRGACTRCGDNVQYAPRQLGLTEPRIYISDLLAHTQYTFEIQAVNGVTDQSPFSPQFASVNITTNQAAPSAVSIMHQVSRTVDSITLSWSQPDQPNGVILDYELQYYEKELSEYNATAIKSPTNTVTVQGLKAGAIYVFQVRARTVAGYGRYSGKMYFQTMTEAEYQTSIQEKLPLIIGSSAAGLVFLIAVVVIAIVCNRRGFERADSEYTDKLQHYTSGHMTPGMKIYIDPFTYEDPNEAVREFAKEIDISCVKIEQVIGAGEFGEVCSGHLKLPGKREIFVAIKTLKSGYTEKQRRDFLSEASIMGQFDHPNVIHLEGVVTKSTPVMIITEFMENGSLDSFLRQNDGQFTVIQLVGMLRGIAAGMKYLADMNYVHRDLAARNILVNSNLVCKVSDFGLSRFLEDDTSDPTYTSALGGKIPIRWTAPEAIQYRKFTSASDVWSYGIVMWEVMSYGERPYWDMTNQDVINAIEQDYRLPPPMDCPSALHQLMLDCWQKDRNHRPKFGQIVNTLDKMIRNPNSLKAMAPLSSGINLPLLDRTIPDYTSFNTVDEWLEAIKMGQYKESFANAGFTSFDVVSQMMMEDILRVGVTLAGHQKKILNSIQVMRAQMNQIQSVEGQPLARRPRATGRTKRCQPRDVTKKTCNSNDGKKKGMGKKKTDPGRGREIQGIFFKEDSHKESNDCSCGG
Chain of Grb2 SH2 (P62993 whole entry, looked up): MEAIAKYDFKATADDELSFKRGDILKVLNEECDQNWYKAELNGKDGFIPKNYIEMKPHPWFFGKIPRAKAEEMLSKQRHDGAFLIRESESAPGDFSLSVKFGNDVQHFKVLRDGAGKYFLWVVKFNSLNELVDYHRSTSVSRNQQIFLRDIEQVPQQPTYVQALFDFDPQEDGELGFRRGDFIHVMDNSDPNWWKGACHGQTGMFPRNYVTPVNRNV

As for RKLVDYDSARH [BIN1_Y150], the figures for the SH2 binding enrichment with c-Src SH2, in the data set with SHP2-C SH2 and with Grb2 SH2 were 0.387, 0.42 and 1.03, respectively. Besides, the phosphorylation enrichment with EPHB1 was found to be 0.498; in the data set with FGFR1, 0.571; in the data set with FGFR3, 0.668; with c-Src, 0.649; in the data set with c-Abl (mouse), 0.916; with EPHB2, 0.481. Moreover, the phosphorylation enrichment with Fyn came to 0.449; with Fer (mouse), 0.565; with Jak2, 0.792; in the data set with MERTK, 0.57; with AncSZ, 0.491; with Hck it was 0.418. Moreover, the phosphorylation enrichment with Fes came to 0.968.

For the sequence RKVLVYDKLNV [ROR2_Y624_N620K], the figures for the SH2 binding enrichment with c-Src SH2, with SHP2-C SH2 and in the data set with Grb2 SH2 were 1.44, 1.09 and 0.906, respectively. Moreover, the phosphorylation enrichment with EPHB1 is 1.37; with FGFR1, 0.49; with FGFR3, 0.44; in the data set on c-Src it was 1.82; in the data set with c-Abl (mouse), 0.854; with EPHB2, 0.794. In addition, the phosphorylation enrichment in the data set with Fyn came out at 1.71; in the data set on Fer (mouse), 1.25; with Jak2, 0.548; with MERTK, 2; in the data set on AncSZ, 0.875; with Hck it was 10.3. Also, the phosphorylation enrichment in the data set with Fes was 0.852.

As for RLAQRYLIWEC [SCN5A_Y694], the SH2 binding enrichment with c-Src SH2 is 0.691; with SHP2-C SH2 it was 0.655; with Grb2 SH2 it was 0.982. Moreover, the phosphorylation enrichment with EPHB1 came out at 0.943; with FGFR1 it was 0.647; in the data set with FGFR3, 0.841; in the data set with c-Src, 0.492; in the data set with c-Abl (mouse) it was 0.86; with EPHB2 it was 0.914. Moreover, the phosphorylation enrichment came to 0.595 with Fyn; 0.546 in the data set with Fer (mouse); 1.34 with Jak2; 0.609 with MERTK; 1.09 in the data set with AncSZ; 0.679 in the data set with Hck. Moreover, in the data set with Fes, the phosphorylation enrichment is 1.66.

As for RLFARYFQGDL [PDK3_Y337_YF], the SH2 binding enrichment with c-Src SH2 is 0.292; in the data set with SHP2-C SH2, 0.454; with Grb2 SH2, 0.713. Further, the phosphorylation enrichment with EPHB1 was 0.416; in the data set with FGFR1, 0.572; with FGFR3 it was 0.627; with c-Src, 0.481; in the data set on c-Abl (mouse), 0.524; with EPHB2, 0.547. Moreover, the phosphorylation enrichment with Fyn was determined as 0.499; in the data set with Fer (mouse), 0.474; with Jak2, 0.545; with MERTK, 0.525; with AncSZ it was 0.826; in the data set with Hck, 0.723. Further, the phosphorylation enrichment in the data set with Fes was 0.882.

Take RLGNQYVNVMN [SLC3A1_Y461]: the SH2 binding enrichment with c-Src SH2 worked out at 2.79; in the data set with SHP2-C SH2, 2.03; with Grb2 SH2, 15.4. Further, the phosphorylation enrichment in the data set with EPHB1 was determined as 2.21; in the data set with FGFR1 it was 0.541; with FGFR3, 0.991; in the data set with c-Src, 0.508; in the data set with c-Abl (mouse) it was 0.524; in the data set with EPHB2, 0.59. Also, the phosphorylation enrichment in the data set with Fyn was determined as 0.471; with Fer (mouse) it was 0.513; in the data set with Jak2 it was 0.64; in the data set with MERTK it was 0.352; in the data set on AncSZ it was 0.619; with Hck it was 0.446. Further, the phosphorylation enrichment with Fes is 0.727.

For RLLCEYQELMN [KRT75_Y434_R432C], the SH2 binding enrichment with c-Src SH2 was determined as 0.54; with SHP2-C SH2, 0.566; with Grb2 SH2, 0.618. Also, the phosphorylation enrichment with EPHB1 was 1.34; in the data set with FGFR1, 0.961; with FGFR3, 1.6; in the data set with c-Src, 0.647; in the data set with c-Abl (mouse), 0.804; with EPHB2, 1.09. The phosphorylation enrichment with Fyn came out at 0.83; with Fer (mouse), 0.839; in the data set with Jak2, 1.33; with MERTK, 0.369; in the data set with AncSZ it was 1.5; with Hck, 0.761. In addition, the phosphorylation enrichment in the data set with Fes is 1.78.

RLLRGYNQSAF [HLA-C_Y137_D138N_YF]: the SH2 binding enrichment was 0.976 with c-Src SH2, 0.705 with SHP2-C SH2 and 1.14 with Grb2 SH2. Moreover, the phosphorylation enrichment with EPHB1 came to 0.503; in the data set with FGFR1 it was 0.665; with FGFR3, 0.547; in the data set on c-Src, 0.424; in the data set on c-Abl (mouse), 0.316; with EPHB2, 0.417. The phosphorylation enrichment with Fyn was 0.458; with Fer (mouse), 0.268; in the data set with Jak2 it was 0.476; with MERTK it was 0.56; in the data set on AncSZ, 0.54; with Hck, 0.402. Besides, the phosphorylation enrichment with Fes is 0.804.

Regarding RLPSGYGLAFR [DLK1_Y262_YF], the SH2 binding enrichment with c-Src SH2 is 0.521; with SHP2-C SH2, 0.852; with Grb2 SH2, 0.823. In addition, the phosphorylation enrichment is 0.416 with EPHB1; 0.422 with FGFR1; 0.595 in the data set with FGFR3; 0.478 with c-Src; 0.889 in the data set on c-Abl (mouse); 0.526 in the data set with EPHB2. In addition, the phosphorylation enrichment worked out at 0.549 with Fyn; 0.49 in the data set with Fer (mouse); 0.837 with Jak2; 0.396 with MERTK; 0.734 with AncSZ; 0.509 with Hck. Also, in the data set with Fes, the phosphorylation enrichment turned out to be 0.885.
